# Results: patent US20190046657A1
# B1: long-acting agalsidase β conjugate (agalsidase β-polyethylene glycol linker-immunoglobulin Fc conjugate) (protein, part only; not given: Fc and PEG linker, UniProt P06280 32-429, looked up, not shown: a dimerising Fc or GST)
# chain: LDNGLARTPTMGWLHWERFMCNLDCQEEPDSCISEKLFMEMAELMVSEGWKDAGYEYLCIDDCWMAPQRDSEGRLQADPQRFPHGIRQLANYVHSKGLKLGIYADVGNKTCAGFPGSFGYYDIDAQTFADWGVDLLKFDGCYCDSLENLADGYKHMSLALNRTGRSIVYSCEWPLYMWPFQKPNYTEIRQYCNHWRNFADIDDSWKSIKSILDWTSFNQERIVDVAGPGGWNDPDMLVIGNFGLSWNQQVTQMALWAIMAAPLFMSNDLRHISPQAKALLQDKDVIAINQDPLGKQGYQLRQGDNFEVWERPLSGLAWAVAMINRQEIGGPRSYTIAVASLGKGVACNPACFITQLLPVKRKLGFYEWTSRLRSHINPTGTVLLQLENTMQMSLKDLL
# modifications: N-terminus covalently linked to a 10 kDa polyethylene glycol linker (ALD-PEG-ALD), whose other end is linked to the N-terminus of one chain of the immunoglobulin Fc
# B2: long-acting imiglucerase conjugate (imiglucerase-polyethylene glycol linker-immunoglobulin Fc conjugate) (protein, part only; not given: Fc and PEG linker, human, UniProt P04062 40-536, looked up, not shown: a dimerising Fc or GST)
# chain: ARPCIPKSFGYSSVVCVCNATYCDSFDPPTFPALGTFSRYESTRSGRRMELSMGPIQANHTGTGLLLTLQPEQKFQKVKGFGGAMTDAAALNILALSPPAQNLLLKSYFSEEGIGYNIIRVPMASCDFSIRTYTYADTPDDFQLHNFSLPEEDTKLKIPLIHRALQLAQRPVSLLASPWTSPTWLKTNGAVNGKGSLKGQPGDIYHQTWARYFVKFLDAYAEHKLQFWAVTAENEPSAGLLSGYPFQCLGFTPEHQRDFIARDLGPTLANSTHHNVRLLMLDDQRLLLPHWAKVVLTDPEAAKYVHGIAVHWYLDFLAPAKATLGETHRLFPNTMLFASEACVGSKFWEQSVRLGSWDRGMQYSHSIITNLLYHVVGWTDWNLALNPEGGPNWVRNFVDSPIIVDITKDTFYKQPMFYHLGHFSKFIPEGSQRVGLVASQKNDLDAVALMHPDGSAVVVVLNRSSKDVPLTIKDPAVGFLETISPGYSIHTYLWRRQ
# modifications: N-terminus covalently linked to a 10 kDa polyethylene glycol linker (ALD-PEG-ALD), whose other end is linked to the N-terminus of one chain of the immunoglobulin Fc
# B3: long-acting iduronidase conjugate (laronidase-polyethylene linker-immunoglobulin Fc conjugate) (protein, part only; not given: Fc and PEG linker, UniProt P35475 26-653, looked up, not shown: a dimerising Fc or GST)
# chain: AEAPHLVHVDAARALWPLRRFWRSTGFCPPLPHSQADQYVLSWDQQLNLAYVGAVPHRGIKQVRTHWLLELVTTRGSTGRGLSYNFTHLDGYLDLLRENQLLPGFELMGSASGHFTDFEDKQQVFEWKDLVSSLARRYIGRYGLAHVSKWNFETWNEPDHHDFDNVSMTMQGFLNYYDACSEGLRAASPALRLGGPGDSFHTPPRSPLSWGLLRHCHDGTNFFTGEAGVRLDYISLHRKGARSSISILEQEKVVAQQIRQLFPKFADTPIYNDEADPLVGWSLPQPWRADVTYAAMVVKVIAQHQNLLLANTTSAFPYALLSNDNAFLSYHPHPFAQRTLTARFQVNNTRPPHVQLLRKPVLTAMGLLALLDEEQLWAEVSQAGTVLDSNHTVGVLASAHRPQGPADAWRAAVLIYASDDTRAHPNRSVAVTLRLRGVPPGPGLVYVTRYLDNGLCSPDGEWRRLGRPVFPTAEQFRRMRAAEDPVAAAPRPLPAGGRLTLRPALRLPSLLLVHVCARPEKPPGQVTRLRALPLTQGQLVLVWSDEHVGSKCLWTYEIQFSQDGKAYTPVSRKPSTFNLFVFSPDTGAVSGSYRVRALDYWARPGPFSDPVPYLEVPVPRGPPSPGNP
# modifications: N-terminus covalently linked to a 10 kDa polyethylene glycol linker (ALD-PEG-ALD), whose other end is linked to the N-terminus of one chain of the immunoglobulin Fc
# Assays:
# [1] = molecular target: mannose-6-phosphate receptor (M6PR); assay: SPR (BIACORE T200), M6PR amine-coupled to CM5 chip, analyte 200 nM to 12.5 nM in HBS-EP
# [2] = molecular target: mannose-6-phosphate receptor (M6PR); assay: SPR (BIACORE T200), M6PR on CM5 chip; the reference itself
# [3] = molecular target: mannose-6-phosphate receptor (M6PR) expressed on CCD986SK cells (human skin fibroblasts) (human); assay: cell-based or functional assay
# [4] = molecular target: mannose-6-phosphate receptor (M6PR); assay: SPR (BIACORE T200), M6PR amine-coupled to CM5 chip, analyte 100 nM to 6.24 nM, HBS-EP pH 7.5, 1:1 Langmuir model
# [5] = molecular target: mannose-6-phosphate receptor (M6PR); assay: SPR (BIACORE T200), M6PR amine-coupled to CM5 chip, analyte 50 nM to 3.125 nM, HBS-EP pH 7.5, 1:1 Langmuir model
# [6] = molecular target: mannose-6-phosphate receptor (M6PR); assay: SPR, summary table; relative to galsulfase
# [7] = molecular target: mannose-6-phosphate receptor (M6PR); assay: SPR, summary table; relative to agalsidase β
# [8] = molecular target: mannose-6-phosphate receptor (M6PR); assay: SPR (BIACORE T200), M6PR amine-coupled to CM5 chip
# [9] = molecular target: mannose-6-phosphate receptor (M6PR); assay: SPR (BIACORE T200), M6PR on CM5 chip; relative to agalsidase beta
# [10] = molecular target: mannose-6-phosphate receptor (M6PR); assay: SPR, summary table; relative to imiglucerase
# [11] = molecular target: mannose-6-phosphate receptor (M6PR); assay: SPR (BIACORE T200), M6PR amine-coupled to CM5 chip, analyte 200 nM to 12.5 nM, HBS-EP pH 7.5, 1:1 Langmuir model
# [12] = molecular target: mannose-6-phosphate receptor (M6PR); assay: SPR (BIACORE T200), M6PR amine-coupled to CM5 chip, analyte 100 nM to 6.25 nM, HBS-EP pH 7.5, 1:1 Langmuir model
# [13] = molecular target: mannose-6-phosphate receptor (M6PR); assay: SPR, summary table; relative to iduronidase
molecule,measurement,setting,value
agalsidase β (from UniProt P06280 32-429) (enzyme),Kd,[1],20 nM
same,koff,[1],0.00273 s⁻¹
same,kon,[1],135000 M⁻¹ s⁻¹
same,relative KD / binding affinity (% of agalsidase beta),[2],100%
same,relative ka (% of agalsidase beta),[2],100%
same,relative kd (% of agalsidase beta),[2],100%
same,intracellular uptake activity (Kuptake),[3],13.7 nM
galsulfase (from UniProt P15848 39-533) (enzyme),Kd,[4],0.38 nM
same,koff,[4],0.0013 s⁻¹
same,kon,[4],3.49e+06 M⁻¹ s⁻¹
iduronidase (from UniProt P35475 26-653) (enzyme),Kd,[5],0.59 nM
same,koff,[5],0.00565 s⁻¹
same,kon,[5],1.69e+07 M⁻¹ s⁻¹
imiglucerase (from UniProt P04062 40-536) (enzyme),Kd,[4],17.3 nM
same,koff,[4],0.00387 s⁻¹
same,kon,[4],232000 M⁻¹ s⁻¹
long-acting galsulfase conjugate (galsulfase-polyethylene glycol linker-immunoglobulin Fc conjugate) (from UniProt P15848 39-533),Binding affinity to M6PR (vs. 1st ERT),[6],25%
same,Kd,[4],1.48 nM
same,koff,[4],0.00122 s⁻¹
same,kon,[4],832000 M⁻¹ s⁻¹
B1,Binding affinity to M6PR (vs. 1st ERT),[7],68%
same,Kd,[8],29.6 nM
same,koff,[8],0.00277 s⁻¹
same,kon,[8],80000 M⁻¹ s⁻¹
same,Intracellular uptake (vs. 1st ERT),[3],47%
same,intracellular uptake activity (Kuptake),[3],29.3 nM
same,relative KD / binding affinity (% of agalsidase beta),[9],67.6%
same,relative ka (% of agalsidase beta),[9],70.4%
same,relative kd (% of agalsidase beta),[9],101%
B2,Binding affinity to M6PR (vs. 1st ERT),[10],22%
same,Kd,[11],79.6 nM
same,koff,[11],0.0039 s⁻¹
same,kon,[11],49000 M⁻¹ s⁻¹
B3,Kd,[12],4.72 nM
same,koff,[12],0.00223 s⁻¹
same,kon,[12],474000 M⁻¹ s⁻¹
same,Binding affinity to M6PR (vs. 1st ERT),[13],13%
